# Values of other authors, collected in patent publication US12258594B2, “Cas proteins with reduced immunogenicity and methods of screening thereof” (THE BROAD INSTITUTE, INC., priority 2018, dated 2025).
# Numbering of substitutions follows the chain as printed. Numbers in names are those of the source.
# B1: His473: LbuCas13a with His473 substituted with alanine (protein, UniProt C7NBY4 1-1159, looked up, variant H473A)
# CRISPR-associated …: MKVTKVGGISHKKYTSEGRLVKSESEENRTDERLSALLNMRLDMYIKNPSSTETKENQKRIGKLKKFFSNKMVYLKDNTLSLKNGKKENIDREYSETDILESDVRDKKNFAVLKKIYLNENVNSEELEVFRNDIKKKLNKINSLKYSFEKNKANYQKINENNIEKVEGKSKRNIIYDYYRESAKRDAYVSNVKEAFDKLYKEEDIAKLVLEIENLTKLEKYKIREFYHEIIGRKNDKENFAKIIYEEIQNVNNMKELIEKVPDMSELKKSQVFYKYYLDKEELNDKNIKYAFCHFVEIEMSQLLKNYVYKRLSNISNDKIKRIFEYQNLKKLIENKLLNKLDTYVRNCGKYNYYLQDGEIATSDFIARNRQNEAFLRNIIGVSSVAYFSLRNILETENENDITGRMRGKTVKNNKGEEKYVSGEVDKIYNENKKNEVKENLKMFYSYDFNMDNKNEIEDFFANIDEAISSIRAGIVHFNLELEGKDIFAFKNIAPSEISKKMFQNEINEKKLKLKIFRQLNSANVFRYLEKYKILNYLKRTRFEFVNKNIPFVPSFTKLYSRIDDLKNSLGIYWKTPKTNDDNKTKEIIDAQIYLLKNIYYGEFLNYFMSNNGNFFEISKEIIELNKNDKRNLKTGFYKLQKFEDIQEKIPKEYLANIQSLYMINAGNQDEEEKDTYIDFIQKIFLKGFMTYLANNGRLSLIYIGSDEETNTSLAEKKQEFDKFLKKYEQNNNIKIPYEINEFLREIKLGNILKYTERLNMFYLILKLLNHKELTNLKGSLEKYQSANKEEAFSDQLELINLLNLDNNRVTEDFELEADEIGKFLDFNGNKVKDNKELKKFDTNKIYFDGENIIKHRAFYNIKKYGMLNLLEKIADKAGYKISIEELKKYSNKKNEIEKNHKMQENLHRKYARPRKDEKFTDEDYESYKQAIENIEEYTHLKNKVEFNELNLLQGLLLRILHRLVGYTSIWERDLRFRLKGEFPENQYIEEIFNFENKKNVKYKGGQIVEKYIKFYKELHQNDEVKINKYSSANIKVLKQEKKDLYIRNYIAHFNYIPHAEISLLEVLENLRKLLSYDRKLKNAVMKSVVDILKEYGFVATFKIGADKKIGIQTLESEKIVHLKNLKKKKLMTDRNSEELCKLVKIMFEYKMEEKKSEN
# B2: Phe995: LbuCas13a with Phe995 substituted with alanine (protein, UniProt C7NBY4 1-1159, looked up, variant F995A)
# CRISPR-associated …: B1 CRISPR-associated … with A473H, F995A
# B3: Asn997: LbuCas13a with Asn997 substituted with alanine (protein, UniProt C7NBY4 1-1159, looked up, variant N997A)
# CRISPR-associated …: B1 CRISPR-associated … with A473H, N997A
# B4: Lys998: LbuCas13a with Lys998 substituted with alanine (protein, UniProt C7NBY4 1-1159, looked up, variant K998A)
# CRISPR-associated …: B1 CRISPR-associated … with A473H, K998A
# B5: Lys718Ala: Lys718Ala mutant of LbuCas13a (protein, UniProt C7NBY4 1-1159, looked up, variant K718A)
# CRISPR-associated …: B1 CRISPR-associated … with A473H, K718A
# B6: Lys845Ala: Lys845Ala mutant of LbuCas13a (protein, UniProt C7NBY4 1-1159, looked up, variant K845A)
# CRISPR-associated …: B1 CRISPR-associated … with A473H, K845A
# B7: Arg1135Ala: Arg1135Ala mutant of LbuCas13a (protein, UniProt C7NBY4 1-1159, looked up, variant R1135A)
# CRISPR-associated …: B1 CRISPR-associated … with A473H, R1135A
# B8: Gln519Ala: Gln519Ala mutant of LbuCas13a (protein, UniProt C7NBY4 1-1159, looked up, variant Q519A)
# CRISPR-associated …: B1 CRISPR-associated … with A473H, Q519A
# B9: SaCas9 T787A: T787A mutant of SaCas9 (protein, UniProt J7RUA5 1-1053, looked up, variant T787A)
# CRISPR-associated …: MKRNYILGLDIGITSVGYGIIDYETRDVIDAGVRLFKEANVENNEGRRSKRGARRLKRRRRHRIQRVKKLLFDYNLLTDHSELSGINPYEARVKGLSQKLSEEEFSAALLHLAKRRGVHNVNEVEEDTGNELSTKEQISRNSKALEEKYVAELQLERLKKDGEVRGSINRFKTSDYVKEAKQLLKVQKAYHQLDQSFIDTYIDLLETRRTYYEGPGEGSPFGWKDIKEWYEMLMGHCTYFPEELRSVKYAYNADLYNALNDLNNLVITRDENEKLEYYEKFQIIENVFKQKKKPTLKQIAKEILVNEEDIKGYRVTSTGKPEFTNLKVYHDIKDITARKEIIENAELLDQIAKILTIYQSSEDIQEELTNLNSELTQEEIEQISNLKGYTGTHNLSLKAINLILDELWHTNDNQIAIFNRLKLVPKKVDLSQQKEIPTTLVDDFILSPVVKRSFIQSIKVINAIIKKYGLPNDIIIELAREKNSKDAQKMINEMQKRNRQTNERIEEIIRTTGKENAKYLIEKIKLHDMQEGKCLYSLEAIPLEDLLNNPFNYEVDHIIPRSVSFDNSFNNKVLVKQEENSKKGNRTPFQYLSSSDSKISYETFKKHILNLAKGKGRISKTKKEYLLEERDINRFSVQKDFINRNLVDTRYATRGLMNLLRSYFRVNNLDVKVKSINGGFTSFLRRKWKFKKERNKGYKHHAEDALIIANADFIFKEWKKLDKAKKVMENQMFEEKQAESMPEIETEQEYKEIFITPHQIKHIKDFKDYKYSHRVDKKPNRELINDALYSTRKDDKGNTLIVNNLNGLYDKDNDKLKKLINKSPEKLLMYHHDPQTYQKLKLIMEQYGDEKNPLYKYYEETGNYLTKYSKKDNGPVIKKIKYYGNKLNAHLDITDDYPNSRNKVVKLSLKPYRFDVYLDNGVYKFVTVKNLDVIKKENYYEVNSKCYEEAKKLKKISNQAEFIASFYNNDLIKINGELYRVIGVNNDLLNRIEVNMIDITYREYLENMNDKRPPRIIKTIASKTQSIKKYSTDILGNLYEVKSKKHPQIIKKG
# B10: D10A: D10A mutant of SaCas9 (protein, UniProt J7RUA5 1-1053, looked up, variant D10A)
# CRISPR-associated …: B9 CRISPR-associated … with D10A, A787T
# B11: E477A: E477A mutant of SaCas9 (protein, UniProt J7RUA5 1-1053, looked up, variant E477A)
# CRISPR-associated …: B9 CRISPR-associated … with E477A, A787T
# B12: D704A: D704A mutant of SaCas9 (protein, UniProt J7RUA5 1-1053, looked up, variant D704A)
# CRISPR-associated …: B9 CRISPR-associated … with D704A, A787T
# B13: H557A: H557A mutant of SaCas9 (protein, UniProt J7RUA5 1-1053, looked up, variant H557A)
# CRISPR-associated …: B9 CRISPR-associated … with H557A, A787T
# B14: N580A: N580A mutant of SaCas9 (protein, UniProt J7RUA5 1-1053, looked up, variant N580A)
# CRISPR-associated …: B9 CRISPR-associated … with N580A, A787T
# Test system: target RNA
# Settings: LbuCas13a HEPN mutants
row,Molecule,cleavage of target and non-target ssRNA substrate
1,B1,significantly reduced the cleavage of both target and non-target ssRNA substrate
2,B2,significantly reduced the cleavage of both target and non-target ssRNA substrate
3,B3,significantly reduced the cleavage of both target and non-target ssRNA substrate
4,B4,significantly reduced the cleavage of both target and non-target ssRNA substrate

# Same assay, conditions: LbuCas13a alanine mutants
row,Molecule,crRNA-guided target RNA cleavage activity
1,B5,reduced target RNA cleavage activity
2,B6,reduced target RNA cleavage activity
3,B7,reduced cleavage activities
4,B8,reduced cleavage activities

# Test system: target DNA
# Settings: SaCas9 mutants
row,Molecule,DNA cleavage activity
1,B9,reduced DNA cleavage activity
2,B10,almost no DNA cleavage activity
3,B11,almost no DNA cleavage activity
4,B12,almost no DNA cleavage activity
5,B13,almost completely lacked DNA cleavage activity
6,B14,almost completely lacked DNA cleavage activity
